The target in one experiment is FtsY (Escherichia coli) (UniProt P10121). The note with it: cited from earlier work.
Experiment [1] deals with cpSRP54 (chloroplast SRP54), wildtype (Arabidopsis thaliana) (UniProt P37107). Briefly: GTPase inhibition assay.
Experiment [2] has the same target. Briefly: GTPase inhibition assay. The source holds these as a separate data set.
Experiment [3] shares this target.
Experiment [4] has as its target cpFtsY(A168W) labeled for FRET. Put plainly: FRET or BRET. (In BRET a luciferase serves as donor, and the signal depends on an acceptor being close.)
In another experiment the target is cpFtsY(321C)-DACM (UniProt O80842). Put plainly: FRET or BRET.
The target in experiment [5] is cpFtsY (chloroplast SRP receptor), wildtype (UniProt O80842). Briefly: GTPase inhibition assay.
Experiment [6] has the same target.
Experiment [7] shares this target. Briefly: GTPase inhibition assay. This is another data set of the same source.

Read-outs that look alike come from different tables or passages of the source. Some results are limits rather than exact numbers.

Chain of cpSRP54 (chloroplast SRP54), wildtype (Arabidopsis thaliana) (P37107 76-564): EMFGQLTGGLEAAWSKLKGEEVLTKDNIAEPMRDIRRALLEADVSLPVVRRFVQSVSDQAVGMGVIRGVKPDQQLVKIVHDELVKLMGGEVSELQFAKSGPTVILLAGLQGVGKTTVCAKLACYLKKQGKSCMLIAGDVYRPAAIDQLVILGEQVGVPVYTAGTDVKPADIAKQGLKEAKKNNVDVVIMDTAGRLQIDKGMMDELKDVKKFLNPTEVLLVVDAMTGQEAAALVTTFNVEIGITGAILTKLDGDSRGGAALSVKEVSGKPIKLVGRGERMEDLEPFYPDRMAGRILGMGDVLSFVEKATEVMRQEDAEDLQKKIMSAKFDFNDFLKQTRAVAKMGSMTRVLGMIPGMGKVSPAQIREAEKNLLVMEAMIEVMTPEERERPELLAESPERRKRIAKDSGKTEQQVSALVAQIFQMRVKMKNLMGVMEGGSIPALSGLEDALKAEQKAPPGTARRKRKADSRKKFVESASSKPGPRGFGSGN
Chain of FtsY (Escherichia coli) (P10121 2-497): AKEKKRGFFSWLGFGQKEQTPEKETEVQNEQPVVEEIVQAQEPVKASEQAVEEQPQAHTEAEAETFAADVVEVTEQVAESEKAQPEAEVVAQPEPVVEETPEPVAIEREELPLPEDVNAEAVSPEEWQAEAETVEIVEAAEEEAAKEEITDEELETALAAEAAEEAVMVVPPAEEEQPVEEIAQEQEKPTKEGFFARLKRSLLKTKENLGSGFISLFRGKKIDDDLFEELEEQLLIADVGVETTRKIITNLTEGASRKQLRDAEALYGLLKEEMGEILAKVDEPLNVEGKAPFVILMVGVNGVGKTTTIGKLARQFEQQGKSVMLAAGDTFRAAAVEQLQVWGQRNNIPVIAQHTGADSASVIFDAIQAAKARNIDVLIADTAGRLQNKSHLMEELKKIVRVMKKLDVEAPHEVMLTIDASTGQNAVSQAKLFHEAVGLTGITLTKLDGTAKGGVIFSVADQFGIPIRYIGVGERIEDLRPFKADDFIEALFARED
Chain of Ffh (P0AGD7 whole entry): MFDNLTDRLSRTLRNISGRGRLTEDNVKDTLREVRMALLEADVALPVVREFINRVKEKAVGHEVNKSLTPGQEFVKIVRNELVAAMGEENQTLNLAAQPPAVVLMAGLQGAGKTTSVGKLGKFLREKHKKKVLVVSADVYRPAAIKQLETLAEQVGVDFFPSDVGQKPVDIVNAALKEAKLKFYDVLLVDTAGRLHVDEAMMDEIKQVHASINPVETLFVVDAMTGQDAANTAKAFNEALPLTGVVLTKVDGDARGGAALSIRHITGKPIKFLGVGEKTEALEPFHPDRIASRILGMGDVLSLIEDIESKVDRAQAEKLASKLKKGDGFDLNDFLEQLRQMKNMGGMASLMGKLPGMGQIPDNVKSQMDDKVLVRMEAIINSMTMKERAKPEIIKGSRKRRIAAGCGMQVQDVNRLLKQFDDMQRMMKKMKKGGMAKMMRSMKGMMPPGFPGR

For Ffh (from UniProt P0AGD7), in the experiment with FtsY (Escherichia coli), the Kd is 6000 nM.

With cpFtsY(A168W) (natural protein), the Ki was 230 nM in [1] and < 200 nM in [2].

On to cpFtsY(F165A) (natural protein), for which the kcat/Km of the reciprocally stimulated GTPase reaction in experiment [3] was found to be 633000 M⁻¹ s⁻¹.

The substance cpFtsY(R166A) (natural protein) had a Ki in experiment [1] of 3200 nM. In addition, the kcat/Km of the reciprocally stimulated GTPase reaction in experiment [3] came to 14800 M⁻¹ s⁻¹.

Take “cpSRP54(234C)-BODIPY-FL (from UniProt P37107 76-564) (natural protein)”: the Kd in experiment [4] worked out at 350 nM. In the experiment with cpFtsY(321C)-DACM, the Kd turned out to be 7000 nM and the kon came to 500000 M⁻¹ s⁻¹.

In the case of cpSRP54(A142W) (natural protein), the Ki in experiment [5] was determined as 110 nM. In experiment [6], the Km of the reciprocally stimulated GTPase reaction worked out at 0.24 µM and the kcat/Km of the reciprocally stimulated GTPase reaction is 46700 M⁻¹ s⁻¹. For the same substance, in experiment [7], the Ki was < 200 nM.

In experiment [5], cpSRP54(D137A) (natural protein) returned an inhibition constant Ki of 2000 nM. Besides, in [6], the kcat/Km of the reciprocally stimulated GTPase reaction came out at 3170 M⁻¹ s⁻¹.

As for cpSRP54(R140A) (natural protein), the Ki in experiment [5] turned out to be 510 nM. Moreover, the kcat/Km of the reciprocally stimulated GTPase reaction in [6] was found to be 9000 M⁻¹ s⁻¹.

In general, Kd refers to a measure of binding affinity in units of concentration. As a reminder, the Ki is the equilibrium dissociation constant of an inhibitor or competing ligand from its target. A low value points to a stronger hold on the target. One may read the kon as a measure of how fast the partners come together. A low value points to slow association.

Values taken from paper PMC6309729.
